{"source": "paper PMC6238066", "about": "“Versatile Fungal Polyphenol Oxidase with Chlorophenol Bioremediation Potential: Characterization and Protein Engineering” (Applied and Environmental Microbiology, 2018)", "molecules": {"B1": {"name": "TtPPO (Thermothelomyces thermophilus ATCC 42464) (protein)", "chain": "RCSSDAPPPAPVGDDLTEPKELTDLFEKAKKAVIDRLHEDEKALRARGEAPRCTADKLIFRREYGSLSKDERLAYVNAVKCLQSKPPRTPASVAPGARSRFDDFVVVHIQQTLDIHYSGIFQAWHRWFVYQYEKALRDECGYTGYQPYWDWPKYASAPQDSPLFNGDPYSLGGNGEYVPHDGPVIVPPEGVSGGNISLPAGVGGGFVRTGPFANMTVNLGPVGGLADTAPGPQGGLGYNPRGLKRDLGGAMNTRYANYTTVLRLLTQPDVDAFRTVSEGVPYTVEIGPHGGIHYTIGGDPGGDLFTSPGDPAFWVHHAQMDRVWATWQALGLLPPADGGDPDPARRYTDLGKGDYAHRTWQNSPPSPFAELSDVIDMGYAAPSTTIGAVMSTTEGELCYFYL", "notes": "secreted by Pichia pastoris X-33, glycosylated; IMAC"}}, "key": {"Oc1ccc(Cl)cc1O": {"tested_on": "Oc1ccc(Cl)cc1O", "experiment": "spectrophotometric oxidation assay, nonlinear regression", "assay_type": "biochemical, Thermothelomyces thermophilus", "settings": "0.1 M sodium phosphate pH 7, 40°C, 440 nm, 0 to 5 mM substrate", "description": "(§1) spectrophotometric oxidation assay, nonlinear regression on TtPPO"}, "purified protein": {"substrate": "COc1ccccc1O", "experiment": "purified protein", "settings": "0.1 M sodium phosphate pH 7, 40°C, 0 to 15 mM substrate"}, "[1]": {"substrate": "COc1cc(C=O)ccc1O", "experiment": "spectrophotometric oxidation assay, nonlinear regression", "assay_type": "biochemical, Thermothelomyces thermophilus", "settings": "0.1 M sodium phosphate pH 7, 40°C, 0 to 5 mM substrate", "description": "as §1"}, "[2]": {"substrate": "N[C@@H](Cc1ccc(O)c(O)c1)C(=O)O", "experiment": "spectrophotometric oxidation assay, nonlinear regression", "assay_type": "biochemical, Thermothelomyces thermophilus", "settings": "0.1 M sodium phosphate pH 7, 40°C, 475 nm, 0 to 7 mM substrate", "description": "as §1"}, "[3]": {"substrate": "Oc1cc(O)c2c(c1)O[C@H](c1ccc(O)c(O)c1)[C@@H](O)C2", "experiment": "spectrophotometric oxidation assay, nonlinear regression", "assay_type": "biochemical, Thermothelomyces thermophilus", "settings": "0.1 M sodium phosphate pH 7, 40°C, 440 nm, 0 to 10 mM substrate (Km lies above tested range)", "description": "as §1"}, "[4]": {"substrate": "Oc1ccc(O)cc1", "experiment": "spectrophotometric oxidation assay, nonlinear regression", "assay_type": "biochemical, Thermothelomyces thermophilus", "settings": "0.1 M sodium phosphate pH 7, 40°C, 480 nm, 0 to 70 mM substrate", "description": "as §1"}, "[5]": {"substrate": "Oc1ccccc1O", "experiment": "spectrophotometric oxidation assay, nonlinear regression", "assay_type": "biochemical, Thermothelomyces thermophilus", "settings": "0.1 M sodium phosphate pH 7, 40°C, 0 to 60 mM substrate", "description": "as §1"}}, "data": [{"molecule": "TtPPO (Thermothelomyces thermophilus ATCC 42464)", "values": [{"measurement": "Km", "setting": "Oc1ccc(Cl)cc1O", "value": "1.6 (0.1) mM"}, {"measurement": "kcat", "setting": "Oc1ccc(Cl)cc1O", "value": 5.69, "unit": "s⁻¹"}, {"measurement": "kcat/Km", "setting": "Oc1ccc(Cl)cc1O", "value": 3490, "unit": "M⁻¹ s⁻¹"}]}, {"molecule": "B1", "values": [{"measurement": "Km", "setting": "purified protein", "value": "4.2 (0.6) mM"}, {"measurement": "kcat", "setting": "purified protein", "value": 2.91, "unit": "s⁻¹"}, {"measurement": "kcat/Km", "setting": "purified protein", "value": 690, "unit": "M⁻¹ s⁻¹"}, {"measurement": "Km", "setting": "[1]", "value": "2.0 (0.1) mM"}, {"measurement": "kcat", "setting": "[1]", "value": 1.92, "unit": "s⁻¹"}, {"measurement": "kcat/Km", "setting": "[1]", "value": 987, "unit": "M⁻¹ s⁻¹"}, {"measurement": "Km", "setting": "[2]", "value": "2.2 (0.6) mM"}, {"measurement": "kcat", "setting": "[2]", "value": 0.108, "unit": "s⁻¹"}, {"measurement": "kcat/Km", "setting": "[2]", "value": 50, "unit": "M⁻¹ s⁻¹"}, {"measurement": "Km", "setting": "[3]", "value": "31.0 (12.9) mM"}, {"measurement": "kcat", "setting": "[3]", "value": 40.5, "unit": "s⁻¹"}, {"measurement": "kcat/Km", "setting": "[3]", "value": 1300, "unit": "M⁻¹ s⁻¹"}, {"measurement": "Km", "setting": "[4]", "value": "54.4 (5.5) mM"}, {"measurement": "kcat", "setting": "[4]", "value": 1.69, "unit": "s⁻¹"}, {"measurement": "kcat/Km", "setting": "[4]", "value": 31.7, "unit": "M⁻¹ s⁻¹"}, {"measurement": "Km", "setting": "[5]", "value": "27.0 (2.8) mM"}, {"measurement": "kcat", "setting": "[5]", "value": 2.19, "unit": "s⁻¹"}, {"measurement": "kcat/Km", "setting": "[5]", "value": 81.7, "unit": "M⁻¹ s⁻¹"}]}]}
